In test [1] the target is LILRB2 antigen of the ELISA of Table 5 (format not specified) (UniProt Q8N423 22-460, limits assumed). Nature of the test: ELISA, antibody titration. In general terms: ELISA stands for enzyme-linked immunosorbent assay.
The target in test [2] is T1, human LILRB1 expressed on 293T cells (human, UniProt Q8NHL6 24-650).
T1 construct: whole, on cells
The experiment in a line: cell ELISA on fixed 293T transfectants, antibody 2 µg/ml, OD490. The procedure: (§1) The cells were then immobilized with glutaraldehyde in the presence of 5% defatted milk at room temperature for 2 hours. An anti-LILRB2 antibody (2 μg/ml) was added to each well and incubated at room temperature for 2 hours. An HRP-labelled goat anti-mouse secondary antibody was then added into each well and incubated at room temperature for one hour. An HRP substrate, o-phenylenediamine dihydrochloride (OPD) was then added to each well. The plate was incubated at room temperature for 15 min to allow color development and OD₄₉₀ values were determined.

Test [3] deals with T2, human LILRB3 expressed on 293T cells (human, UniProt O75022 24-631).
T2 construct: whole, on cells
The test is described as above. The method, then:
as §1

Test [4] has as its target T3, His-tagged human LILRB2 polypeptide (human, UniProt Q8N423 22-460).
T3 construct: SPR analyte; also called His-tagged human LILBR2 polypeptide; not shown: His tag
The experiment in a line: SPR, antibody on CM5 chip, His-LILRB2 analyte, 1:1 model. The method, then: Surface plasmon resonance (SPR) was used to examine binding activities of exemplary anti-LILBR2 antibodies disclosed herein. Briefly, the anti-LILBR2 antibody was diluted in a coating buffer to a concentration of 30 μg/ml, loaded onto CM5 chips at 10 μl/min to allow coating of the antibody on the surface of the CM5 chip. […] Binding affinity was measured based on the 1:1 binding model.

The target in test [5] is T4, human LILRB2 expressed on cells (293T-LILRB2, CHO-K1-LILRB2) (human, UniProt Q8N423 22-597).
T4 construct: whole, on cells; the cell line is named under assay; also called HEK293T-LILRB2
T4 sequence (Q8N423 22-597): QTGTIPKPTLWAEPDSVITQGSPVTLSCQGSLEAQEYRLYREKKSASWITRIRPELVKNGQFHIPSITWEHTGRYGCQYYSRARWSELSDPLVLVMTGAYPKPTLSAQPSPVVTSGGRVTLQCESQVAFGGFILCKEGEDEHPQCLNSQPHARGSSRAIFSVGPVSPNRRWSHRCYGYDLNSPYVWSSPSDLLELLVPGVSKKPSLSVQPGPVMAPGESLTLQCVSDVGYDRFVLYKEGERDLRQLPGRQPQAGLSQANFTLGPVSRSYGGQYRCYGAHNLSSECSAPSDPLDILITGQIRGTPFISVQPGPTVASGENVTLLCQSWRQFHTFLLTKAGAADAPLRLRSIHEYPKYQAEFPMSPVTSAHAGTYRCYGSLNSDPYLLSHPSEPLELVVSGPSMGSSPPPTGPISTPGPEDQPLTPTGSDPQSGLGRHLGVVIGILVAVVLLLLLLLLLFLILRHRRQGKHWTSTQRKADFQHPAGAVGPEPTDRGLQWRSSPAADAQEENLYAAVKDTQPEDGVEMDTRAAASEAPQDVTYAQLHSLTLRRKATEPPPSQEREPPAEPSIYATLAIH
Nature of the test: flow cytometry, blockade of His-tagged HLA-G tetramer binding to 293T-LILRB2 cells; fit table under the graph, row headed EC50. The procedure: (§2) Serial diluted humanized LILRB2 antibodies were then added to the mixture and incubated at room temperature for another 45 minutes. The binding of HLA-G/LILRB2 was detected afterwards using a secondary PE-labeled anti-His tag antibody via flow cytometry.
A general note: In flow cytometry, cells or beads pass a laser one at a time.

In test [6] the target is T4, human LILRB2 expressed on cells …. The experiment in a line: flow cytometry, blockade of His-tagged HLA-A2 tetramer binding to 293T-LILRB2 cells; fit table under the graph.
For test [7] the target is unchanged. The experiment in a line: flow cytometry, blockade of His-tagged HLA-G tetramer binding to 293T-LILRB2 cells; fit table under the graph. The method, then:
as §2

For test [8] the target is unchanged. The description is as above. The procedure: as §2
The source holds these as a separate data set.

The target is the same in test [9]. The experiment in a line: flow cytometry, blockade of His-tagged HLA-A2 tetramer binding to 293T-LILRB2 cells.
Test [10] shares this target. Nature of the test: flow cytometry on 293T-LILRB2 cells, serial dilution, APC anti-human IgG; fit table under the graph. The text has this: (§3) The cells were washed and then subject to flow cytometry to measure levels of fluorescent signals.
For test [11] the target is unchanged. The description is as above.
From the text: as §3
This is another data set of the same source.

For test [12] the target is unchanged. Described as above.
From the text: as §3
This is another data set of the same source.

Test [13] has the same target. Described as above.
From the text: as §3
This is another data set of the same source.

Test [14] has the same target. The experiment in a line: flow cytometry, blockade of His-tagged HLA-G tetramer binding to 293T-LILRB2 cells; fit table under the graph. The method, then: as §2
The source holds these as a separate data set.

Test [15] has the same target. The experiment in a line: flow cytometry, 293T-LILRB2 cells. The text has this:
The fluorescent signals were detected by flow cytometry.

The target of test [16] is T5, recombinant human LILRB2 protein (human, UniProt Q8N423 22-460, limits assumed).
T5 construct: also called recombinant LILRB2 protein
T5 sequence (Q8N423 22-460 limits assumed): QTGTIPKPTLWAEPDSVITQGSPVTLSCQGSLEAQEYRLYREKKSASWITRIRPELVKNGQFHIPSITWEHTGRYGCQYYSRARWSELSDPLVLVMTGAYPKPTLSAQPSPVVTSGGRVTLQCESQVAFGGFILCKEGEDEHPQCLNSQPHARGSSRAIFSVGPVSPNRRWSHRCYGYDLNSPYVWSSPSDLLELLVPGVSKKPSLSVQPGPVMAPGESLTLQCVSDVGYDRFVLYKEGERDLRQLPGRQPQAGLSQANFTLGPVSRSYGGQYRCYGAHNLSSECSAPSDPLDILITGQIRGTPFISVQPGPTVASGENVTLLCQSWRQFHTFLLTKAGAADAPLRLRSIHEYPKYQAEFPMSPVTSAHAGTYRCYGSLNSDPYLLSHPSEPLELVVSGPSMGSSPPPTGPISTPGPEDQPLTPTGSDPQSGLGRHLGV
The experiment in a line: ELISA, coated recombinant human LILRB2. The arrangement: unit not given here. The procedure: This affinity maturation library was screened against human LILRB2 to identify antibodies having high binding affinity to LILRB2. Briefly, an ELISA plate was coated with 0.1 ug/well recombinant human LILRB2 protein. Serial diluted maturated h#2E1 antibodies were incubated in the LILRB2 coated plate for 2 hrs. The plate was washed and a secondary HRP-labeled anti-human IgG was then added to each well. After being incubated at room temperature for 1 hour, the colorimetric ELISA signals were developed by adding the TMB substrate and reaction was stopped by 1M H3PO4. Table 7 below provides binding activities of exemplary matured antibodies to recombinant LILRB2 protein.

For test [17], the target named is T4, human LILRB2 expressed on cells …. The experiment in a line: flow cytometry, His-HLA-A2 tetramer (competitor) bound to 293T-LILRB2 cells, relative to no antibody. The arrangement: concentration or dose not given beside the values. The procedure: Serial diluted h#2E1 antibodies were then added to the mixture and incubated at room temperature for another 45 minutes. […]

The term Kd denotes the constant that tells how readily two partners part at equilibrium. As usually defined, the koff is the rate constant with which the complex falls apart. A word on the kon: it is the second-order rate constant of association. One may read the EC50 as the concentration giving half of the maximal effect. A word on the IC50: it is the concentration at which inhibition is half-maximal.

Where two headings read alike, the source gives them in different places.

T3 sequence (Q8N423 22-460 limits assumed): as above
Sequence of LILRB2 antigen of the ELISA of Table 5 (format not specified) (Q8N423 22-460 limits assumed): as above
T1 sequence (Q8NHL6 24-650): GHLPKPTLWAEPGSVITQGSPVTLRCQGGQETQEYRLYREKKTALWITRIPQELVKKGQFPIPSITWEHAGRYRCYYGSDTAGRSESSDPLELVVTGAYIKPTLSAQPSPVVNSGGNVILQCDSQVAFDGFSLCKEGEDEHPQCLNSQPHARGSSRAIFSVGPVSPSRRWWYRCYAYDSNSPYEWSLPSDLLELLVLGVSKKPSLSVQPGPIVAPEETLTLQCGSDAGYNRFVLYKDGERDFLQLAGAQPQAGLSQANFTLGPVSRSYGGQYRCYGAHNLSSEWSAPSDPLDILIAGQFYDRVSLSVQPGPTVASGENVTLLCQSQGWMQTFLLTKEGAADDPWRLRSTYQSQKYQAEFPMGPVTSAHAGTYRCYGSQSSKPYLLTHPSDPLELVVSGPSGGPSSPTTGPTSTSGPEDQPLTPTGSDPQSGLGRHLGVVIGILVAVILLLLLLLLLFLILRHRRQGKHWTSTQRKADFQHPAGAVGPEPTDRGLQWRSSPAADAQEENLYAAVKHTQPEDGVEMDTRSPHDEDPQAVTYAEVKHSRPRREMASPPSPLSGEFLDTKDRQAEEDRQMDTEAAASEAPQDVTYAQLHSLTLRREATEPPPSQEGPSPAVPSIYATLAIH

B1: Antibody 10D7 (antibody, V domains shown)
VH: EVKLVESGGGLVKPGGSLKLSCAASGFTFSSYGMSWVRQTPEKRLEWVATISGAFSYTYYPDSVKGRFTISRDNAKNNLYLQMSSLRSEDTAFYYCARHDNSLYYAMDYWGQGTSVTVSS
VL: NVQITQSPSYLAASPGETITINCRTSKSITKYLAWYQEQPGKTNKLLIYSGSTLQSGIPSRFSGSGSGTDFTLTISSLEPEDFAMYYCQQHNEYPWTFGGGTKLEIK
notes: Mouse hybridoma mAb purified from ascites
Molecule B1 registered a Kd in test [1] of 0.705 nM. Besides, in [2], the binding result was “binds”. Besides, the binding result in [3] is given as “binds”. Besides, in test [4], the Kd stood at 0.317 nM, the koff came to 0.000107 s⁻¹ and the kon was found to be 338000 M⁻¹ s⁻¹.

B2: Antibody h#2E1 (antibody, V domains shown)
VH: EVQLVESGGGLVQPGGSLRLSCAVSGYSITSGYYWNWIRQAPGKGLEWVAYISYDGNNNYNPSLKNRFTISRDTSKNTFYLQMNSLRAEDTAVYYCAREESTMITTAWFAYWGQGTLVTVSS
VL: DIQMTQSPSSLSASVGDRVTITCRASENIYSNLAWYQQKPGKAPKLLIYGATNLASGVPSRFSGSGSGTDYTLTISSLQPEDFATYYCQHFWDTPYTFGQGTKVEIK
notes: Humanized variant of 11B12; detected with anti-human IgG
On to B2, for which, in test [5], the EC50 is 0.163 nM. The IC50 is 0.787 nM in test [6], 0.361 nM in test [7] and 0.813 nM in [14]. The Span stood at 8000 RFU in test [7] and 11900 RFU in [8]. Moreover, in test [9], the “IC50 (read off the curve)” value is approximately 1 nM. Moreover, the Kd was found to be 0.364 nM in test [10], 0.162 nM in [11], 0.377 nM in test [12] and 0.446 nM in [13]. Besides, the Bmax in test [11] is 556000 RFU; in test [12], 618000 RFU; in test [13], 647000 RFU.

B3: Antibody 2E1_FC11 (antibody, V domains shown)
VH: EVQLVESGGGLVQPGGSLRLSCAVSGYSITSGYYWNWIRQAPGKGLEWVAYISYDGNINYNPSLKNRFTISRDTSKNTFYLQMNSLRAEDTAVYYCAREESTMITTAWFAYWGQGTLVTVSS
VL: DIQMTQSPSSLSASVGDRVTITCRASENIYSNLAWYQQKPGKAPKLLIYGATNLASGVPSRFSGSGSGTDYTLTISSLQPEDFATYYCQHFWDYPYTFGQGTKVEIK
notes: also called A16
Take B3: the IC50 in [6] worked out at 0.468 nM; in [7], 0.36 nM; in test [8], 0.442 nM; in test [14], 0.472 nM. Besides, the Span in test [7] came to 5700 RFU; in [8], 8620 RFU. In addition, the figures for the Bmax in [15] and in test [16] were 461000 and 1.37, respectively. Also, the “% no Ab” value in [17] came out at 50.7%.

For the origin of these results see patent US20240109962A1 (SPARX BIOSCIENCE, published 2024).
